Assay results as given in patent publication US20250320281A1.

Assays:
Test in all cases: cell-based or functional assay
[1] = molecular target: HIV-1 Env of isolate JR-CSF (pseudovirus) (HIV-1) (UniProt P20871)
[2] = molecular target: HIV-1 Env of isolate MGRM-C-026 (pseudovirus) (HIV-1)
[3] = molecular target: HIV-1 Env of isolate 92TH021 (pseudovirus) (HIV-1)
[4] = molecular target: HIV-1 Env of isolate MG RM-D-029 (HIV-1)
[5] = molecular target: HIV-1 Env of isolate MGRM-F1-015 (HIV-1)
[6] = molecular target: HIV-1 Env of isolate MGRM-F1-010 (HIV-1)
[7] = molecular target: HIV-1 Env of pseudovirus MGRM-AE-008 (subtype AE) (HIV-1)
[8] = molecular target: HIV-1 Env of isolate MG RM-D-026 (HIV-1)
[9] = molecular target: HIV-1 Env of isolate MG RM-D-014 (HIV-1)
[10] = molecular target: HIV-1 Env of isolate MG RM-D-012 (HIV-1)
[11] = molecular target: HIV-1 Env of isolate MGRM-F1-017 (HIV-1)
[12] = molecular target: HIV-1 Env of isolate MGRM-F1-020 (HIV-1)
[13] = molecular target: HIV-1 Env of pseudovirus MGRM-AE-007 (subtype AE) (HIV-1)
[14] = molecular target: HIV-1 Env of pseudovirus MGRM-AG-011 (subtype AG) (HIV-1)
[15] = molecular target: HIV-1 Env of isolate MGRM-F1-014 (HIV-1)
[16] = molecular target: HIV-1 Env of pseudovirus MGRM-AG-009 (subtype AG) (HIV-1)
[17] = molecular target: HIV-1 Env of pseudovirus MGRM-AG-003 (subtype AG) (HIV-1)
[18] = molecular target: HIV-1 Env of isolate MG RM-D-021 (HIV-1)
[19] = molecular target: HIV-1 Env of isolate MGRM-F1-013 (HIV-1)
[20] = molecular target: HIV-1 Env of pseudovirus MGRM-AG-008 (subtype AG) (HIV-1)
[21] = molecular target: HIV-1 Env of isolate MGRM-F1-018 (HIV-1)
[22] = molecular target: HIV-1 Env of isolate MGRM-F1-023 (HIV-1)
[23] = molecular target: HIV-1 Env of isolate MGRM-F1-016 (HIV-1)
[24] = molecular target: HIV-1 Env of isolate MG RM-D-020 (HIV-1)
[25] = molecular target: HIV-1 Env of pseudovirus MGRM-AG-005 (subtype AG) (HIV-1)
[26] = molecular target: HIV-1 Env of isolate MG RM-D-028 (HIV-1)
[27] = molecular target: HIV-1 Env of pseudovirus MGRM-AG-012 (subtype AG) (HIV-1)
[28] = molecular target: HIV-1 Env of isolate MG RM-D-024 (HIV-1)
[29] = molecular target: HIV-1 Env of isolate MGRM-F1-004 (HIV-1)
[30] = molecular target: HIV-1 Env of isolate MG RM-D-011 (HIV-1)
[31] = molecular target: HIV-1 Env of pseudovirus MGRM-AG-006 (subtype AG) (HIV-1)
[32] = molecular target: HIV-1 Env of isolate MG RM-D-018 (HIV-1)
[33] = molecular target: HIV-1 Env of isolate MG RM-D-013 (HIV-1)
[34] = molecular target: HIV-1 Env of isolate MGRM-F1-006 (HIV-1)
[35] = molecular target: HIV-1 Env of pseudovirus MGRM-AG-002 (subtype AG) (HIV-1)
[36] = molecular target: HIV-1 Env of pseudovirus MGRM-AG-013 (subtype AG) (HIV-1)
[37] = molecular target: HIV-1 Env of isolate MG RM-D-022 (HIV-1)
[38] = molecular target: HIV-1 Env of isolate MGRM-F1-022 (HIV-1)
[39] = molecular target: HIV-1 Env of isolate MG RM-D-016 (HIV-1)
[40] = molecular target: HIV-1 Env of isolate MGRM-F1-012 (HIV-1)
[41] = molecular target: HIV-1 Env of isolate MG RM-D-019 (HIV-1)
[42] = molecular target: HIV-1 Env of isolate MGRM-F1-008 (HIV-1)
[43] = molecular target: HIV-1 Env of pseudovirus MGRM-AG-001 (subtype AG) (HIV-1)
[44] = molecular target: HIV-1 Env of isolate MGRM-F1-021 (HIV-1)
[45] = molecular target: HIV-1 Env of isolate MGRM-C-015 (HIV-1)
[46] = molecular target: HIV-1 Env of isolate MGRM-C-017 (HIV-1)
[47] = molecular target: HIV-1 Env of isolate MGRM-C-026 (HIV-1)
[48] = molecular target: HIV-1 Env of isolate MGRM-C-025 (HIV-1)
[49] = molecular target: HIV-1 Env of isolate MGRM-C-023 (HIV-1)
[50] = molecular target: HIV-1 Env of isolate MGRM-C-019 (HIV-1)
[51] = molecular target: HIV-1 Env of isolate MGRM-C-027 (HIV-1)
[52] = molecular target: HIV-1 Env of isolate MGRM-C-028 (HIV-1)
[53] = molecular target: HIV-1 Env of isolate MGRM-C-022 (HIV-1)
[54] = molecular target: HIV-1 Env of isolate MGRM-C-014 (HIV-1)
[55] = molecular target: HIV-1 Env of isolate MGRM-C-024 (HIV-1)
[56] = molecular target: HIV-1 Env of isolate MGRM-C-020 (HIV-1)

Sequence of PGT-144 (4970_K22) (antibody) (VH): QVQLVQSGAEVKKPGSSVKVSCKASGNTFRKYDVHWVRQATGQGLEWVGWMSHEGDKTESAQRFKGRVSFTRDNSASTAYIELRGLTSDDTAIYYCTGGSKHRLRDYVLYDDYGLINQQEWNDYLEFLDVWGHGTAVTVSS
Sequence of PGT-144 (4970_K22) (antibody) (VL): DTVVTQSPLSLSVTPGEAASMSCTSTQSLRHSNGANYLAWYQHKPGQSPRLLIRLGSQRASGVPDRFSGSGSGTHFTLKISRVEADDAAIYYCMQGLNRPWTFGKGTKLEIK
Sequence of PGT-142 (antibody) (VH): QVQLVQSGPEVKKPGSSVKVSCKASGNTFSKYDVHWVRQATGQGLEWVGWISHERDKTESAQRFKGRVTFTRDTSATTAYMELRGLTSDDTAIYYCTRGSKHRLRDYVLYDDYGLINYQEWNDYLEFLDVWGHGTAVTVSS
Sequence of PGT-142 (antibody) (VL): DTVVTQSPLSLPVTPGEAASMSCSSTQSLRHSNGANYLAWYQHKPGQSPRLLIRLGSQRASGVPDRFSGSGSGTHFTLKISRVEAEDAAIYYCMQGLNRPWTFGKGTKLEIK
Sequence of PGT-143 (4980_N08) (antibody) (VH): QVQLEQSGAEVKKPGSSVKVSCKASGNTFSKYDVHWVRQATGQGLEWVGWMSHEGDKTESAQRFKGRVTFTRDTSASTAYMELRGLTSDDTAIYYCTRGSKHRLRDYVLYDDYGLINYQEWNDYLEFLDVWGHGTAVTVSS
Sequence of PGT-143 (4980_N08) (antibody) (VL): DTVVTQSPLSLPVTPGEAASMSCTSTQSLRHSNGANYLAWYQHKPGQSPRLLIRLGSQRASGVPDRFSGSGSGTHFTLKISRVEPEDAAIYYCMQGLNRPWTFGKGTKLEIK

Substance: 5113_D22 (labelled PGT-132 in Table 26) (antibody)
- Primary Neutralization Index (B cell culture supernatant) [1]: 3
- Primary Neutralization Index (B cell culture supernatant) [2]: 6
- Primary Neutralization Index (B cell culture supernatant) [3]: 51

Substance: PGT-144 (4970_K22) (antibody)
- IC50 [4]: 0.459 µg/mL
- IC50 [5]: > 50 µg/mL
- IC50 [6]: > 50 µg/mL
- IC50, pseudovirus neutralization [7]: 3.55 µg/mL
- IC50 [8]: > 50 µg/mL
- IC50 [9]: 0.113 µg/mL
- IC50 [10]: > 50 µg/mL
- IC50 [11]: > 50 µg/mL
- IC50 [12]: 8.93 µg/mL
- IC50, pseudovirus neutralization [13]: > 50 µg/mL
- IC50, pseudovirus neutralization [14]: 44.6 µg/mL
- IC50 [15]: 0.014 µg/mL
- IC50, pseudovirus neutralization [16]: > 50 µg/mL
- IC50, pseudovirus neutralization [17]: > 50 µg/mL
- IC50 [18]: > 50 µg/mL
- IC50 [19]: 0.509 µg/mL
- IC50, pseudovirus neutralization [20]: > 50 µg/mL
- IC50 [21]: > 50 µg/mL
- IC50 [22]: 1.16 µg/mL
- IC50 [23]: > 50 µg/mL
- IC50 [24]: > 50 µg/mL
- IC50, pseudovirus neutralization [25]: > 50 µg/mL
- IC50 [26]: > 50 µg/mL
- IC50, pseudovirus neutralization [27]: > 50 µg/mL
- IC50 [28]: > 50 µg/mL
- IC50 [29]: 0.105 µg/mL
- IC50 [30]: > 50 µg/mL
- IC50, pseudovirus neutralization [31]: > 50 µg/mL
- IC50 [32]: > 50 µg/mL
- IC50 [33]: > 50 µg/mL
- IC50 [34]: 20.6 µg/mL
- IC50, pseudovirus neutralization [35]: 7.78 µg/mL
- IC50, pseudovirus neutralization [36]: > 50 µg/mL
- IC50 [37]: > 50 µg/mL
- IC50 [38]: 0.382 µg/mL
- IC50 [39]: > 50 µg/mL
- IC50 [40]: > 50 µg/mL
- IC50 [41]: > 50 µg/mL
- IC50 [42]: 0.507 µg/mL
- IC50, pseudovirus neutralization [43]: > 50 µg/mL
- IC50 [44]: > 50 µg/mL

Substance: PGT-143 (4980_N08) (antibody)
- IC50 [4]: 0.2 µg/mL
- IC50 [5]: > 50 µg/mL
- IC50 [6]: > 50 µg/mL
- IC50, pseudovirus neutralization [7]: 0.135 µg/mL
- IC50 [8]: 44.6 µg/mL
- IC50 [9]: 0.009 µg/mL
- IC50 [10]: > 50 µg/mL
- IC50 [11]: 26.3 µg/mL
- IC50 [12]: 0.98 µg/mL
- IC50, pseudovirus neutralization [13]: 13.6 µg/mL
- IC50, pseudovirus neutralization [14]: 0.156 µg/mL
- IC50 [15]: 0.001 µg/mL
- IC50, pseudovirus neutralization [16]: > 50 µg/mL
- IC50, pseudovirus neutralization [17]: > 50 µg/mL
- IC50 [18]: > 50 µg/mL
- IC50 [19]: 0.013 µg/mL
- IC50, pseudovirus neutralization [20]: 34 µg/mL
- IC50 [21]: 0.701 µg/mL
- IC50 [22]: 0.972 µg/mL
- IC50 [23]: > 50 µg/mL
- IC50 [24]: > 50 µg/mL
- IC50, pseudovirus neutralization [25]: 1.11 µg/mL
- IC50 [26]: > 50 µg/mL
- IC50, pseudovirus neutralization [27]: > 50 µg/mL
- IC50 [28]: > 50 µg/mL
- IC50 [29]: 0.036 µg/mL
- IC50 [30]: > 50 µg/mL
- IC50, pseudovirus neutralization [31]: > 50 µg/mL
- IC50 [32]: > 50 µg/mL
- IC50 [33]: 0.386 µg/mL
- IC50 [34]: 12.3 µg/mL
- IC50, pseudovirus neutralization [35]: 0.076 µg/mL
- IC50, pseudovirus neutralization [36]: > 50 µg/mL
- IC50 [37]: > 50 µg/mL
- IC50 [38]: 0.082 µg/mL
- IC50 [39]: > 50 µg/mL
- IC50 [40]: > 50 µg/mL
- IC50 [41]: 0.277 µg/mL
- IC50 [42]: 0.189 µg/mL
- IC50, pseudovirus neutralization [43]: 18.9 µg/mL
- IC50 [44]: > 50 µg/mL

Substance: PGT-142 (antibody)
- IC50 (µg/mL), pseudovirus neutralization [45]: 0.038 µg/mL
- IC50 (µg/mL), pseudovirus neutralization [46]: 1.11 µg/mL
- IC50 (µg/mL), pseudovirus neutralization [47]: > 50 µg/mL
- IC50 (µg/mL), pseudovirus neutralization [48]: 0.183 µg/mL
- IC50 (µg/mL), pseudovirus neutralization [49]: 0.087 µg/mL
- IC50 (µg/mL), pseudovirus neutralization [50]: 0.003 µg/mL
- IC50 (µg/mL), pseudovirus neutralization [51]: 0.792 µg/mL
- IC50 (µg/mL), pseudovirus neutralization [52]: 2.12 µg/mL
- IC50 (µg/mL), pseudovirus neutralization [53]: 0.086 µg/mL
- IC50 (µg/mL), pseudovirus neutralization [54]: 6.02 µg/mL
- IC50 (µg/mL), pseudovirus neutralization [55]: 0.03 µg/mL
- IC50 (µg/mL), pseudovirus neutralization [56]: 0.446 µg/mL

Substance: 5117_E22 (labelled PGT-133 in Table 26) (antibody)
- Primary Neutralization Index (B cell culture supernatant) [1]: 3.6
- Primary Neutralization Index (B cell culture supernatant) [2]: 3.4
- Primary Neutralization Index (B cell culture supernatant) [3]: 42.5
